The values below come from US20210188971A1 (QUIDEL, published 2021).

The target of this test is T1, L1-10 fusion protein (human).
T1 construct: also called L1-10, unlabeled; L1-10 antigen
The test is described as follows: indirect sandwich luminescence ELISA, L1-10 held by anti-MBP or StrepMAb on RAM. (In general: ELISA stands for enzyme-linked immunosorbent assay.)

Procedure: Appropriate diluted standards were prepared along with controls and samples in a Assay Diluent in a separate non-sticky plate. 50 μl or 100 μl of each antibody or antigen (at indicated concentrations) were pipetted to the plate wells. Plates were sealed and incubated for 60 minutes at RT (unless otherwise indicated). The plates were washed with PBST 4×. 50 μl/well of Furimazine substrate was pipetted and incubated for 3 minutes at RT.
The mouse monoclonal antibody served as the anchor for L1-10.

B1: M22_NLuc_HisTag antibody protein (antibody, human IgG1, lambda)
heavy: not shown
light: LTVLTQPPSVSGAPRQRVTISCSGNSSNIGNNAVNWYQQLPGKAPKLLIYYDDQLPSGVSDRFSGSRSGTSASLAIRGLQSEDEADYYCTSWDDSLDSQLFGGGTRLTVLGQPKAAPSVTLFPPSSEELQANKATLVCLISDFYPGAVTVAWKADSSPVKAGVETTTPSKQSNNKYAASSYLSLTPEQWKSHKSYSCQVTHEGSTVEKTVAPTECS
notes: also called M22_Luc; mAb Nluc-His
For the molecule B1, the binding result was “binds”.
